Data taken from patent publication US20260184779A1 (XBIOTECH, published 2026).

Molecular target: T1, recombinant human interleukin 1 alpha (IL-1α) (human, UniProt P01583 113-271)
T1 sequence (looked up): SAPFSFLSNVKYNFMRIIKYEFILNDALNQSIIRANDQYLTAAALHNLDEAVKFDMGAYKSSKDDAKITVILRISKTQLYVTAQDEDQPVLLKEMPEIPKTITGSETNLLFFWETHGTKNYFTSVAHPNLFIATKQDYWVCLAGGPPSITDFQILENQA
Assay: cell-based or functional assay

HUVEC-based potency assay: ICAM-1 expression on HUVEC cells by flow cytometry, IC50: 3.7 ng/mL
B1: human monoclonal antibody designated XIA13 (antibody, V domains shown)
VH: QVQLVQSGAEVKKPGSSVKVSCKASGGRFTNYAILWVRQAPGQGLQWLGGIIPIFDETDHAQDFQDRLTITVDESMTTAYMELSSLRPEDTAIYYCATGSNSYYGLYWGQGTLVTVSS
VL: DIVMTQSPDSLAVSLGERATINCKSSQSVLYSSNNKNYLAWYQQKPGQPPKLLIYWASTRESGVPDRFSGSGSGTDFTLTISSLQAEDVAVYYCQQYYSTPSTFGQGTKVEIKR
